From US20180355009A1

T1: human IL-22 receptor complex IL22R1 and IL10R2, overexpressed on HEK 293 cells (human) (UniProt Q8N6P7)
T1 sequence (looked up) 1: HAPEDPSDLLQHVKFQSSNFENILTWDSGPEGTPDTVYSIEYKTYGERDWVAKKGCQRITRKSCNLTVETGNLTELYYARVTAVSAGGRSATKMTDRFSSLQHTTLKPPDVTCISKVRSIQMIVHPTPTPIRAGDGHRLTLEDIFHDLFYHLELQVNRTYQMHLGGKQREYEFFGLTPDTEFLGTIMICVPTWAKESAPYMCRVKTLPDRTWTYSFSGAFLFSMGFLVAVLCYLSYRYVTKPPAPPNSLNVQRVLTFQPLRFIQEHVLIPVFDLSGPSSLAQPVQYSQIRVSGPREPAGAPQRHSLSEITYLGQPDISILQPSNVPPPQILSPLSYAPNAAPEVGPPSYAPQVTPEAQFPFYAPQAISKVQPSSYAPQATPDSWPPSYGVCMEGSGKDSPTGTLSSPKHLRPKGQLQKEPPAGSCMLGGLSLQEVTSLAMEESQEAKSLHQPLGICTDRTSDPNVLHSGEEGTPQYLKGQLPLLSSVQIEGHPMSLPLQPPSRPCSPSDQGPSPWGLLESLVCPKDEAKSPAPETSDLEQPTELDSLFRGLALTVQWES
T1 sequence (looked up) 2: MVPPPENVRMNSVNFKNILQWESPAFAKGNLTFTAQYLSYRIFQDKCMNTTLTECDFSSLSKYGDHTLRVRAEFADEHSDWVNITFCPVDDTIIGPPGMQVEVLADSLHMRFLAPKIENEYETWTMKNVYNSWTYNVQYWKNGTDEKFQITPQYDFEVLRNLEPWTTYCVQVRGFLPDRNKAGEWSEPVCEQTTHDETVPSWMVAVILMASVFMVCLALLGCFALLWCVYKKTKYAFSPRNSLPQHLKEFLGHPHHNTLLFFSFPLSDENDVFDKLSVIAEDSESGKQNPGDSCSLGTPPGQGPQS

B1: IL-22 Fc construct 12 (huIgG1, linker …, produced in CHO) (Fc fusion, not shown: a dimerising Fc or GST)
chain: APISSHCRLDKSNFQQPYITNRTFMLAKEASLADNNTDVRLIGEKLFHGVSMSERCYLMKQVLNFTLEEVLFPQSDRFQPYMQEVVPFLARLSNRLSTCHIEGDDLHIQRNVQKLKDTVKKLGESGEIKAIGELDLLFMSLRNACIDKKVEPKSSDKTHT
B2: IL-22 Fc construct 18 (huIgG1, linker …, N297G, produced in CHO) (Fc fusion, not shown: a dimerising Fc or GST)
chain: APISSHCRLDKSNFQQPYITNRTFMLAKEASLADNNTDVRLIGEKLFHGVSMSERCYLMKQVLNFTLEEVLFPQSDRFQPYMQEVVPFLARLSNRLSTCHIEGDDLHIQRNVQKLKDTVKKLGESGEIKAIGELDLLFMSLRNACIKKVEPKSSDKTHT
B3: IL-22 Fc construct 13 (huIgG1, linker …, produced in CHO) (Fc fusion, not shown: a dimerising Fc or GST)
chain: APISSHCRLDKSNFQQPYITNRTFMLAKEASLADNNTDVRLIGEKLFHGVSMSERCYLMKQVLNFTLEEVLFPQSDRFQPYMQEVVPFLARLSNRLSTCHIEGDDLHIQRNVQKLKDTVKKLGESGEIKAIGELDLLFMSLRNACIKVDKKVEPKSSDKTHT
B4: IL-22 Fc construct 24 (huIgG1, linker …, produced in E. coli) (Fc fusion, not shown: a dimerising Fc or GST)
chain: APISSHCRLDKSNFQQPYITNRTFMLAKEASLADNNTDVRLIGEKLFHGVSMSERCYLMKQVLNFTLEEVLFPQSDRFQPYMQEVVPFLARLSNRLSTCHIEGDDLHIQRNVQKLKDTVKKLGESGEIKAIGELDLLFMSLRNACIEPKSSDKTHT

Each binder was assayed against T1, human IL-22 receptor complex IL22R1 and IL10R2, overexpressed on HEK 293 cells (human) (assay: cell-based or functional assay).

EC50 (pM), STAT3 luciferase reporter assay [pM] | Binder
25 | B1
20 | B2
25 | B3
16 | B4
